Laboratory results published in patent publication US20150343090A1.

Molecular target: neuropilin-1 (NRP-1) receptor on PPC-1 prostate cancer cells (human) (UniProt O14786)
Experiment: cell-based or functional assay

UniProt O14786, sequence (O14786 22-923): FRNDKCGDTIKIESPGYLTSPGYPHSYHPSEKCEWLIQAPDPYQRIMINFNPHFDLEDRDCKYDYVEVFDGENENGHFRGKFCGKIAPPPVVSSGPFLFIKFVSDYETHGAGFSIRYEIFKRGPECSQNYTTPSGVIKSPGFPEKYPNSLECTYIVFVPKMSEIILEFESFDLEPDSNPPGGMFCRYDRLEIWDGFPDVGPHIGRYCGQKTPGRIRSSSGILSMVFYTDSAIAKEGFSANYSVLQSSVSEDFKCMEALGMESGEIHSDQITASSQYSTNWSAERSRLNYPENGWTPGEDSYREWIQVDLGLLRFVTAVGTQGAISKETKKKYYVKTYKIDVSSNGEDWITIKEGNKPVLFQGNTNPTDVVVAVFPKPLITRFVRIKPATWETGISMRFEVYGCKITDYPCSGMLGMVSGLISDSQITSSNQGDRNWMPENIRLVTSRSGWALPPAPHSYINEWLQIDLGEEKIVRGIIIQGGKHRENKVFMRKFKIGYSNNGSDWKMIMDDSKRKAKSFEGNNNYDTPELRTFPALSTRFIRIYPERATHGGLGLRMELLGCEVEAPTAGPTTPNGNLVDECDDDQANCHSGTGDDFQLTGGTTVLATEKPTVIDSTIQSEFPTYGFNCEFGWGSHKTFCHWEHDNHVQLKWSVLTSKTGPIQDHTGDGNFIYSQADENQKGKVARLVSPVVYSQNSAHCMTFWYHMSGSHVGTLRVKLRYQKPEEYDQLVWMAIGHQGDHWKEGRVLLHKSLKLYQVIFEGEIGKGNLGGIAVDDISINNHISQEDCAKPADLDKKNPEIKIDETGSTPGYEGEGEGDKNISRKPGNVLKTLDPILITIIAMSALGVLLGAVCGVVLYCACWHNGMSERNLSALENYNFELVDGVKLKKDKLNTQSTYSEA

GFP internalized per PPC-1 cell (cell lysate fluorescence) (GFP molecules per cell): 100000 | nanoshells internalized per PPC-1 cell (calculated from cell lysate fluorescence) (RPARPAR GFP-HGN per cell): 200
Substance: His-tag-GFP-RPARPAR (RPARPAR-modified GFP fusion protein) loaded on NTA-Ni hollow gold nanoshells
